This passage reports binding results from article PMC11495376.

Holding throughout (settings): EMSA per cited procedure (ref 27); buffer, salt, pH and temperature not given in the material
Background: Mobility shift assays separate free from complexed probe on a gel.

The subject of series [1] is T1, TarR (Bacillus velezensis FZB42), ORF:a9b72c09.
T1 sequence: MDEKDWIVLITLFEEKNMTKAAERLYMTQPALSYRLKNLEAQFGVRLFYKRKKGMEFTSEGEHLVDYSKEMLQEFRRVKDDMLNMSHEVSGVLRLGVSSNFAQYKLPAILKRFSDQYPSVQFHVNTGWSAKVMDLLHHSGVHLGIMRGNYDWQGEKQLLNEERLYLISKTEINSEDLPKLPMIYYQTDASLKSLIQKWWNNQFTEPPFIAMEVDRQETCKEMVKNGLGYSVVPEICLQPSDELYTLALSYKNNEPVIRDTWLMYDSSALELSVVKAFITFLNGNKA
In words: EMSA.

Series [2] relates to T2, TarRN1-91 (Bacillus velezensis FZB42), ORF:46dabd2b.
T2 sequence: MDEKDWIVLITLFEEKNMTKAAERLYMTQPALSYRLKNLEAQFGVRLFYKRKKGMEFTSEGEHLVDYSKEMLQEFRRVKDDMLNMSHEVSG
Kind of series: EMSA?

Series [3] concerns T1, TarR (Bacillus velezensis FZB42), ORF:a9b72c09. Kind of series: DNase I footprinting.

As for “AGCGAAAATATTTTTTAAAAAAGTATTGACCTAGCAAACTGAAAATGTTATGATTAAGAGGTCGCTTCGAGAGAAGCAACAAAGTTCTTTGAAAACTAAACAAGACAAAACGTACCTGTTAATTCAAAGTTTTAAATAAATCGCACAGCGATGTGCGTAGTCAGTCAAACTAC (double strand) [P16S]”, in series [1], the binding entry is “no binding”.

Turning to “GCTGTCTCATCCTTACATCATTTTGTGTGGATAAAAAGGTACCGGTCCCTTTGGAAAATATCGTATGATAAATAAGGATTATAAGTAAAACATATAATTTTTATAAAGTTGAATAAAAAAAATTTATAATAAGAGAAAATTTTATAGCAGAAAAATATTTTGGGGGATTTCAT (double strand) [Ptar]”, the binding entry in series [1], in series [2] and in series [3] was “binds” in each case.
